Earlier results in publication PMC3508151.
Read-outs that look alike come from different tables or passages of the source.

Columns and labels:
IL-13Rα1 (Homo sapiens) [1] = target: IL-13Rα1 (Homo sapiens) (UniProt P78552); settings: cited from earlier work
IL-13Rα1 (Homo sapiens) [2] = target: IL-13Rα1 (Homo sapiens) (UniProt P78552); settings: cited from earlier work; remark: listed apart in the source

Chain of IL-13Rα1 (Homo sapiens) (P78552 22-343): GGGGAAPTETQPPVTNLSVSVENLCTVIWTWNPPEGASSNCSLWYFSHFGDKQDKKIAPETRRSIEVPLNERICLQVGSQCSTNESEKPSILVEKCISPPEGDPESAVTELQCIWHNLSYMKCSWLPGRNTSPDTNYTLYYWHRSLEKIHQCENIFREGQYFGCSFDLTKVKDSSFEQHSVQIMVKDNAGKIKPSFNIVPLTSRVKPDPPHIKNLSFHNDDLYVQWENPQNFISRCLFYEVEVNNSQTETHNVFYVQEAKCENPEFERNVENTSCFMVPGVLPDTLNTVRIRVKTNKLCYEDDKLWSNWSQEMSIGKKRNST
Chain of IL-4 (P05112 25-153): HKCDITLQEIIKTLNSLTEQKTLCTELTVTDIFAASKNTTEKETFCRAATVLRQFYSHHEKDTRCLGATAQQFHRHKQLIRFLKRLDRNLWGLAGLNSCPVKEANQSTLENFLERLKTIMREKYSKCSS
Chain of IL-13 (P35225 25-146): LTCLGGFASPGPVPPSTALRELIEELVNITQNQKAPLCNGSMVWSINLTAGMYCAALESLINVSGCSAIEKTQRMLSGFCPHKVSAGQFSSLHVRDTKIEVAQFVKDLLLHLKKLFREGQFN

Substance | Kd (IL-13Rα1 (Homo sapiens) [1]) | Kd (IL-13Rα1 (Homo sapiens) [2])
IL-13 | 30 nM | 
IL-4 (from UniProt P05112) |  | > 1000 nM
